Measurements reported in the nanobody polyreactivity screen of Harvey et al. (2022).

experiment: yeast display, Sf9 membrane polyspecificity reagent, FACS + sequencing; frameworks hold sequencing errors
Method in brief: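 A nanobody's polyreactivity label depends on the gate it was sorted from. Yeast display cells were stained with 10% biotinylated, detergent-solubilized Sf9 membrane reagent for 1 hour at 4 °C, enriched on streptavidin microbeads and sorted by FACS. The low and high (top ~1%) gates were set on anti-HA fluorescence for expression and streptavidin fluorescence for reagent binding.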

Row | Sequence | polyreactivity (PSR sort gate)
1 | QVQLVESGGGLVQAGGSLRLSCAASGSIFLPYAMGWSRQAPGTEREFVAAIRWSTGRTFYADSVKGRFTISRDNAKNTVYLQMNSLKPEDTAVYYCAAKYYDSWYTYRYDYWGQGTQVTVSS | high polyreactivity
2 | QVQRVESGGGLVQAGGSLRLSCAATGLIFSPYAMGWYRQAPGKEREFVAGITWRGGNTYYADSVKGRFTISRDNAKNTVYLQMNSLNPEDTAVYYCAAYERKFYTVSRWYKLDYWGQGTQVTVSS | high polyreactivity
3 | QVQLVESGGGLVQAGGSLRLSCAASGFTFWPNAMGWYRQAPGKERELVAAINWSGGSTYYADSVKGRFTISRDNAKNTVFLQLNSLKPEDTAVYYCAAVSYDWYVGYEFWGQGTQVTVSS | low polyreactivity
4 | QVQLVESGGGLVQAGGSLRLSCAASGRIFTAYHMGWYRQAPGKESELVAAITRSSGSTYYADSVKGRFTISRDNAKNTVYLQMIRLKPEVTAVYYCATDGEFWGYDSWGQGTQVTVSS | low polyreactivity
5 | QVQLVESGGGLVQAGGSLRLSCAASGSIFYHYAMGWYRQAPGKERELVAAISSGGSTSYADSVKGRFTFSRDNAKNTVYLQMNSLKPEDTAVYYCNARRIRSRSWKYDYWGQGTQVTVSS | low polyreactivity
6 | QVQLVESGGGLVQAGGSLRLSCAASGSIFAVNAMGWYRQAPGKERELVAAIDWSDGITYYADSVKGRFTISRDNAKNTVYLQMNSLKPEDTAVYYCAADATAYGWYVEQFSFYDNDYWGQGTEVTVSS | high polyreactivity
7 | QVQLVESGGGLVQAGGSLRLSCAASGFIFRDNAMGWYRQSPGKERELVAAISERGGRTYYADSVKGRFTISRDNAKNTVYLQMNSLKPEDTAVYYCADEDIAKFYYWGQGTQVTVSS | high polyreactivity
8 | QVQLVESGGGLVQAGGSLRLSCAASGRIFRYYAMGWYRQAPGKERELVATISRSGGSTFYADSVKGRFTISRDNGKNPVYLQMNSLKPEDSAVYYCNARYQTGCYGYWGQGTQVTVSS | high polyreactivity
9 | QVQLVESGGGLDQAGGSLRLSCAASGSIFGRNAMRWYRQAPGKERELVAAITGYTYYADSVKGRFTISRDNAKNTVYLQMNSLKPEDTAVYYINADHDVGWTYDTEYNYWGQGTQVTVSS | low polyreactivity
10 | QVQLVESGGGLVQAGGSLRLSCAASGSIFYSNAMGWYRQAPGKERELVAAIRRSGGSTYYADSVKGRFTISRDNAKNTVYLQMNSLKPEDTEVYYCAARYSGTYSFYLSVGSRGYNYWGQGTQVTVSS | high polyreactivity
11 | QVQLVESGGGLVQAGGSLRLSCAASGRTFPRYTMGWYRQAPGKERELVAASATGGSTYYADSVKGRFTISRDNAKNTVYLQMNSLKPEDTAVYYCAARPYSNRYVLGVYYWGQGTQVTVSS | high polyreactivity
12 | QVQLVESGGGLVQAGGSLRLSSAASGRIFYNYAMGWYRQSPGKERELVAAISGSGGSTYYADSVKGRFTISRDNAKNTVYLQMNSLKPEDTAVFYCSTSGPQYYSRNFDYWGQGTQVTVSS | low polyreactivity
13 | QVQLVESGGGLVQAGGTLRLSWAASGSNFGFYTMGWYRLAPGKERELVAAITWSDSSTYADSVKGRYTISRDNAKNTVYLQMNSLKPEDTAVYYCNADTTTVEYYPFHYYTYDYWGQGTQVTVSS | low polyreactivity
14 | QVQLVESGGGLVQAGGSLRLSCAASGFTLDYYAMGWYRKAPGKERELVAAISFSGGSTYYADSVKGRFTISRDNAKNTVYLQMNSLKPEDTAVYYCAADPQIVWYDYWGQGTQVTVSS | low polyreactivity
15 | QVQLVESGGGLVQAGGSLRLSCAASGFTFGRNAMGWYRQAPGKERELVAAISRGGSTYYADSVKGRFTISRDNAKNTVYLQMISLKPEDTAVYYCAAETFLKPQYFKKFGYWGQGTQVTVSS | high polyreactivity
16 | QVQLVESGGGLVQAGGSLRLSCAASGRIFWYVLGWYRQAPGNERELVATITSSGGSSYYADSVKGRFTISRDNAKNTVYLQMNSLKPEDTAVNYCAVDLQTLGADRIITVYVGEDYWGQGTQVTVSS | low polyreactivity
17 | QVQLVETGGGLVQAGGSLRLSCAASGLTFDENAMGWYRQAPGINYSGASTYYADSVKGRFTISRDNAKNTVYLQMNSLKPEDTAVYYCAAEVVAQMNYWGQGTQVTVSS | low polyreactivity
18 | QVQLVESGGGLVQAGGSLRLSCAASGSIFRTYAMGWYRQAPGKEREWVAAISSTGGRTYYADSVKGRFTISRDNAKNTVYLQMNSLKPEDTAVYYCAKRYRYITYRYDYWGQGTQVTVSS | high polyreactivity
19 | QVQLVESGGGLVQAGGSLRLSCAASGRTFDAYAMGWYRQAPGKERELVAAIRRGSSTNYADSVKGRFTISRDNAKNTVYLQMNSLKPEDTAVYYCAARRQWLGIRTGYNYWGQGTQVTVSS | high polyreactivity
20 | QVQLVESGGGLVQAGGSLRLSCAASGFIFSWYVMGWYRQAPGKERELVAAISQSGGDTYYADSVKGRFTFSRDNAKNTVYLQMNILKPEDTAVYYCAVGRVGRFYYWGQGTQVTVSS | high polyreactivity
21 | QVQLVESGGGLVQAGGSLRLSCAASGSTFGGYAMGWYRQAPGKERELVAAISSGGSTYYADSVKGRFTISRDNAKNTVYLQMNSLKPEDTAVYYCAAEGIYFILWYGYVEYDYWGQGTQVTVSS | low polyreactivity
22 | QVQLVESGGGLVQAGGSLRLSCAASGRIFKYYAMGWYRQAPGKERELVAAITWSGGNTYYADSVKGRFTISRDNAKNTVYLQMNSLKPEDTAVYYCAREVYYPIRQYNYWGQGTQVTVSS | high polyreactivity

Row | Sequence | polyreactivity (PSR sort gate)
23 | QVQLVESGGGLVQAGGSLRLSCAASGSTFPGNAMGWYRQAPGKERELVASISGGGDSTYYADSVKGRFTISRDYAKNTVYLQMNSLKPEDTAVYYCAADYRQEPGYTGYYYWGQGTQVTVSS | low polyreactivity
24 | QVQLVESGGGLVQAGGSLRLSCAASGSTFDFYAMGWYRQAPGKERELVAAISKSGGSTYYADSVKGRFTISRDTAKNTVYLQMNSLKPEDTAVYYCAAYVSYRMYWGQGTQVTVST | high polyreactivity
25 | QVQHVESGGGLVQAGGSLRLSGAASGSTFPTIAMGWNRQAPGKEREWVADITIRAGGTSYADSVKGRFTISRDNAKNSVYLQMNSLKPQDTAVFYCARSKSSELKRLLYDSWGEGTQVTVSS | low polyreactivity
26 | QVQLVESGGGLVQAGGSLRLSCAASGRILYLYTMGWYRQAPGKERELVAAISRGGSTYYADSVKGRFTISRDNAKNTVYLQMNSLKPEDTAVYYCSADARGYQFNYWGQGTLVTVSS | high polyreactivity
27 | QVQLVESGGGLVQAGGSLRLSCAASGRTFIAYAMGWYRPAPGKERALVAAITSSGGSTYYADSVKGRFTISRDNAKNTVYLQMNSLKPEDTAVFYCATDIYESPYFYYSYYYWGQGTQVTVSS | low polyreactivity
28 | QVQLVESGGGLVQAGGSLRLSCAASGRIFSYYVMGWNRQAPGKERELVAAITSGGSTNYADSEKGRFTISRDNAKNTVYLQMNSLKPEDTAVYYCNRAYTYINRLYGYWGQGTQVTVSS | high polyreactivity
29 | QVQLVESGGGLDQAGGSLRLSCAASGSTFPSNAMGWYRQAPGNESEFVAAITFRGGRTYYADSVKGRFTISRDNAKNTVYLQMNSLKREDTAVYYCAAERWWYTVRGYGYWGQGTQVTVSS | high polyreactivity
30 | QVQLQESGGGLVKAGGSLRLSCAASGSISNSAAMGWYRQAPGKERELVVSIGHGASSNYADSVKGRFTISRDNAKNTVYLQMNSLKPEDTAVYYCAAYPGFLDGFFYWGQSTQVTVSS | high polyreactivity
31 | QVQLVESGGGLVQAGGSLRLSCAASGIILYYYVMVWYRQEPGKEREFVAAINRSGTSTYYADSVKGRFTISRDNAKNTVYLQMNSLKPADTAVYYCAAERYWSGGVFDYDYWGQGTQVTVSS | high polyreactivity
32 | QVQHVESVGGLVQARGSLRLSCAASGSIFDLYAMGWYRQAPGKERELVAGISYSGGSTYYADSVKGRFTISRDNAKNTVYLQMNSLKPEETAVYYCATAYYYHGGYYYPYDDYWGQGTQVTVSS | low polyreactivity
33 | QVQLVESGGGLVQAGGSLRLSCAASGSTFDIYAMGWYRQAPGKERELVAAITFSGGSTYYADSVKGRFTISRDNAKNTVYLQMNSLKPEDTAVDYCAARNDYYKTFSGYDYWGQGTQVTVSS | low polyreactivity
34 | QVQLVESGGGLVQAGGSLRLSCAASGLTFQNNAMGWYRQAPGKERELVAVITRIGGSTYYADSVKGRFTISRDNAKNTVYLQMNSLKPEDTAVYYCAAGYRTRRRLHDYWGQGTQVTVSS | high polyreactivity
35 | QVQLVESGGGLVQAGGSLRLSCAASGSTFTPYAMGWSRKAPGKERELVAVIRWRGGRTYYADSVQGRFTISRDNAKNTVYLQMNSLKPEDTAVYYCAAGGSQGAGGYGYYGYDYWGQGTQETVSS | low polyreactivity
36 | QVQHVESRGGLVQAGGSLRLICAASGFILYYYAMGWYRQAPGKVREMVASISRRGGSTYYADSVKGRFTISRDNAKNTVYLQMNSLKPEDTAVYYCAATETTSRRFGYDYWGQGTQVTVSS | high polyreactivity
37 | QVQLVESGGGLVQAGGSLRLSCAASGSIFTPYAMVWYRQAPGQERELVAAITSGGSTYYADSVKGRFTISRDNAKNTVYLQMNSLKPEDTAVYYCARRVWNYLRRSWYDYWGQGTQVTVSS | high polyreactivity
38 | QVQLVESGGGLVQAGGSLRLSCAASGSTLRPYAMGWYRQAPGKERELVAAISKSGASTYYADSVKGRFTISRDNAQNTVYLQMNSLKPEDTAVYYCNAGRGTGETLYGYDYWGQGTQVTVSS | high polyreactivity
39 | QVQLVESGGGLVQAGGSLRLSCAASGITFGDYTMGWYRQAPGKERELVAVISSGGNTNYADSVKGRFTISRDNAKNTVYLQMNSLKPEDTAVYYCAAVIASYGTRYRGGYTRYYYWGQGTQVTVSS | high polyreactivity
40 | QVQLVESGGGLVQAGGSLRLSCAASGSIFRKYPMGWYRQAPGKDTELVAAISKRGGSTYYADSVKGRFTISRDNAKNTVYLQMNSLKPEDTAVYYFNALRRYVSVRPTKSDYWGQGTQVTVSS | high polyreactivity
41 | QVQLVESGGGLVQAGGRLRLSCAASGFTFAYYAMGWYRQAPGKERELVAAIRWSGTRTYYADSVKGRFTISRDHAKNTVYLQMNSLKPEDTAVYYCAKGIWYGTSGYYYWGQGTQVTVSS | high polyreactivity
42 | QVQLVESGGGLVQAGGSLRLSCAASGRIFRYYAMGWFRQAPGKERELVASISRRGGSTNYADSVKGRFTISRDNAKNTVDLQMNSLKPEDTAVYYCNAENSSPRGLYNYWGQGTQVTVSS | high polyreactivity
43 | QVQLVESGGGLVQAGGSLRLSCAASGYTFPLYAMGWYRQAPGKERELVATISSSGSRTYYADSVKGRFTISRDNAKNTVYLQMNSLKPEDTAVYYCAARYRAYVKLTSYDWGQGTQVTVSS | high polyreactivity
